Test [1] deals with T1, Hdm2 (Human Double Minute 2, full-length, untagged) (human, UniProt Q00987 1-491).
T1 construct: GenBank M92424 printed; also called wild type Hdm2
Briefly: binding assay not described further.

Test [2] deals with T2, Hdm2 140-350 (polyhistidine-tagged, bacterial) (human, UniProt Q00987 140-350).
T2 construct: The sense primer places an ATG before residue 141, so position 140 of the construct may be Met; also called Hdm2 140-350 polypeptide; not shown: N-terminal polyhistidine tag of pET28a
T2 sequence (Q00987 140-350): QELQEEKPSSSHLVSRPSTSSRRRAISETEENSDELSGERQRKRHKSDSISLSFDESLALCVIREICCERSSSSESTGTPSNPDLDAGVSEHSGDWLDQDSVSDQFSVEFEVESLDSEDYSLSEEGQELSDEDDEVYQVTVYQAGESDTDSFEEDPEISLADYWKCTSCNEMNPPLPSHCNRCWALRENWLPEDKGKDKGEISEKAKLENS
Briefly: immunoprecipitation and blot with bacterial Hdm2 140-350.

Test [3] concerns the target T2, Hdm2 140-350 (polyhistidine-tagged, …). Kind of test: FPLC affinity chromatography, ARF polypeptide coupled to Sepharose, NaCl gradient then acid.
Test [4] deals with T3, Mdm2 (Murine Double Minute 2, full-length) (mouse, UniProt P23804 1-489).
T3 construct: Full-length protein made in Sf9 cells from a baculovirus, or endogenous in NIH-3T3 cells; GenBank X58876 printed; also called wild type Mdm2; full-length Mdm2
T3 sequence (P23804 other isoform, or with tags, fused parts or gaps limits assumed): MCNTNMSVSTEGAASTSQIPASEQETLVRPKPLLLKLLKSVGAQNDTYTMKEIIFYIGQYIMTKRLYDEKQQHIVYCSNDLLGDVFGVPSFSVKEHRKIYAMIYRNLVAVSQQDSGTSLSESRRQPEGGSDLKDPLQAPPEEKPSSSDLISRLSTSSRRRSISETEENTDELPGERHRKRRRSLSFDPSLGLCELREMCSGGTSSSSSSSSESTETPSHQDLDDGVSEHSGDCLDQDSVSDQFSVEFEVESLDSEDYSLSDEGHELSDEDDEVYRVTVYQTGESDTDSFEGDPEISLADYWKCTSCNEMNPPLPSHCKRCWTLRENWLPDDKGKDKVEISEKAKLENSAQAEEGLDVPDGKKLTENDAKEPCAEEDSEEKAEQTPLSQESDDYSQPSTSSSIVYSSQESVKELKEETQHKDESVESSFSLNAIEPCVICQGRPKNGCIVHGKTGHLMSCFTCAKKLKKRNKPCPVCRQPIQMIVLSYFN
Kind of test: His-tagged syn-ARF N37 mixed with Mdm2 from Sf9 cells, immunoprecipitation with 2A10 or anti-polyhistidine and blot.

In test [5] the target is T4, Hdm2 210-304 (polyhistidine-tagged, bacterial) (human, UniProt Q00987 210-304).
T4 construct: The sense primer places an ATG before residue 211; not shown: N-terminal polyhistidine tag of pET28a
T4 sequence (Q00987 210-304): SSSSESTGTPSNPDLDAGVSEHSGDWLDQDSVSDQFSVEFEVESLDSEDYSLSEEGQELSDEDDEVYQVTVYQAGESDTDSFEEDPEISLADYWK
Kind of test: FPLC affinity chromatography, NaCl gradient then acid.

Test [6] concerns the target T4, Hdm2 210-304 (polyhistidine-tagged, …). Briefly: FPLC affinity chromatography on peptide coupled to Sepharose.
Test [7] deals with T2, Hdm2 140-350 (polyhistidine-tagged, …). Described as above.
The target in test [8] is T5, CDK4 (mouse, endogenous) (mouse, UniProt P30285 2-303).
T5 sequence (looked up): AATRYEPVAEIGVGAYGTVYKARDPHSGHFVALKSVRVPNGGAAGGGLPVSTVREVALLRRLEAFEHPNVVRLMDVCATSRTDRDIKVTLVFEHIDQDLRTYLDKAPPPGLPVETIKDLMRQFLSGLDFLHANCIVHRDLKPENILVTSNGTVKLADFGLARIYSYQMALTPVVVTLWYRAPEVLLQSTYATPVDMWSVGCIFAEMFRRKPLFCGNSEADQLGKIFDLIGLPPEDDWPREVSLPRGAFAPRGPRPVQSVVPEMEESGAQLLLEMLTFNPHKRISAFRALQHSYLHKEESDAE
Briefly: p16 immunoprecipitates blotted with antiserum to CDK4.

For test [9], the target named is endogenous wild-type p53 of mouse fibroblasts (NIH-3T3 cells, MEFs) (mouse, UniProt P02340 1-390). Briefly: sequential immunoprecipitation from NIH-3T3 cells; EMSA. A general note: A gel shift assay detects complexes by their altered migration in electrophoresis.
Sequence of endogenous wild-type p53 of mouse fibroblasts (NIH-3T3 cells, MEFs) (P02340 whole entry): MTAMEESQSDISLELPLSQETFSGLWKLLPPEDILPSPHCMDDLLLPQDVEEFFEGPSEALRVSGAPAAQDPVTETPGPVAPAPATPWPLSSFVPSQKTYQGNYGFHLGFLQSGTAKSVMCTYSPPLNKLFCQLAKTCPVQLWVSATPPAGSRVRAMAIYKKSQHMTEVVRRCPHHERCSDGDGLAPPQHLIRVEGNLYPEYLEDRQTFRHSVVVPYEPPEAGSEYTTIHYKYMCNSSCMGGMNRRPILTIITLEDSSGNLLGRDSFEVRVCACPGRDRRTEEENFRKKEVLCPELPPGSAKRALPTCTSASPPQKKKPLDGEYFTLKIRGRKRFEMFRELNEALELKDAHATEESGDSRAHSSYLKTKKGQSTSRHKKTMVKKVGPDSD
Test [10] concerns the target T5, CDK4 (mouse, endogenous). Briefly: immunoprecipitates from cell lysates blotted with anti-ARF-p19; Sf9 baculovirus reconstruction also gave no convincing evidence.
The target in test [11] is T6, CDC2 (mouse, endogenous) (mouse, UniProt P11440 1-297).
T6 construct: also called CDK1
T6 sequence (P11440 whole entry): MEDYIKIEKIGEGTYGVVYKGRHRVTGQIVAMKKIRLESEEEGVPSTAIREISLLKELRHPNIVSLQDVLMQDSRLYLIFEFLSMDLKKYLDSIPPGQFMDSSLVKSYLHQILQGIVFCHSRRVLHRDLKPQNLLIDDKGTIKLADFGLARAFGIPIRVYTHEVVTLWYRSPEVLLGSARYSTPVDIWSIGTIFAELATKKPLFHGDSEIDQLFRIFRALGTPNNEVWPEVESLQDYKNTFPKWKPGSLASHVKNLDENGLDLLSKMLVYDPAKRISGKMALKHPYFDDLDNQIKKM
Described as above.

Test [12] concerns the target CDK6 (mouse, endogenous) (mouse, UniProt Q64261 1-326). The description is as above.
In test [13] the target is cyclin D1 (mouse, endogenous) (mouse, UniProt P25322 1-295). The test is described as above.
Sequence of cyclin D1 (mouse, endogenous) (P25322 whole entry): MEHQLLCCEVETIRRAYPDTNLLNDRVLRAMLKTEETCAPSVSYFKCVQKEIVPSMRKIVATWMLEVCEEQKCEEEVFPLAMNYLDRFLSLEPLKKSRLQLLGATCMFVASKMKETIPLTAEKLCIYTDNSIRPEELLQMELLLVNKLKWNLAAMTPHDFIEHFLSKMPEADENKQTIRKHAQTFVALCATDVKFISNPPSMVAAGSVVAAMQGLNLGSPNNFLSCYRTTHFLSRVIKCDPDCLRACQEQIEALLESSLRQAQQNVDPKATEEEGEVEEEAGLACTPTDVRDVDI
The target in test [14] is cyclin D2 (mouse, endogenous) (mouse, UniProt P30280 1-289). The test is described as above.
Sequence of cyclin D2 (mouse, endogenous) (P30280 whole entry): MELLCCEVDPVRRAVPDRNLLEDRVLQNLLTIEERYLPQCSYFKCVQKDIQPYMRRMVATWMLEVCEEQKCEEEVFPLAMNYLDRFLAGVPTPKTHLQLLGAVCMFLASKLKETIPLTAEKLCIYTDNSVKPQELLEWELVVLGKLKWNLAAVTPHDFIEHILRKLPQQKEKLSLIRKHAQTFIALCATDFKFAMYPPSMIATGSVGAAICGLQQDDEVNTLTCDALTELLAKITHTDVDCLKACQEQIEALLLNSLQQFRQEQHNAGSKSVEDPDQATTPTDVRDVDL
The target of test [15] is cyclin A (mouse, endogenous) (mouse, UniProt P51943 1-422, limits assumed). Described as above.
Sequence of cyclin A (mouse, endogenous) (P51943 whole entry): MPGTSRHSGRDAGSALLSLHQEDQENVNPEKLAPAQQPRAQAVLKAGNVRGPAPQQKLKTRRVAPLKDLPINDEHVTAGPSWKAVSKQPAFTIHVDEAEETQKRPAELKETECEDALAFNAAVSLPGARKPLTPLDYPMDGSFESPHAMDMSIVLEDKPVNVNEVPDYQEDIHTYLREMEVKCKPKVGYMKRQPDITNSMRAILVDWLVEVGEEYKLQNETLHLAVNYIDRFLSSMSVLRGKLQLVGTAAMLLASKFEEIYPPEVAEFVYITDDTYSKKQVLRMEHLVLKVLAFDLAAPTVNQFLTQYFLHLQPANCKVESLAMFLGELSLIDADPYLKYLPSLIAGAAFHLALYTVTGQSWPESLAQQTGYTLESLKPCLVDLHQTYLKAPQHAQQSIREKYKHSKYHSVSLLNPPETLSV

Results on ten molecules are retold here after patent US6407062 (ST JUDE CHILDREN S RESEARCH HOSPITAL, dated 2000).

T1 sequence (Q00987 whole entry): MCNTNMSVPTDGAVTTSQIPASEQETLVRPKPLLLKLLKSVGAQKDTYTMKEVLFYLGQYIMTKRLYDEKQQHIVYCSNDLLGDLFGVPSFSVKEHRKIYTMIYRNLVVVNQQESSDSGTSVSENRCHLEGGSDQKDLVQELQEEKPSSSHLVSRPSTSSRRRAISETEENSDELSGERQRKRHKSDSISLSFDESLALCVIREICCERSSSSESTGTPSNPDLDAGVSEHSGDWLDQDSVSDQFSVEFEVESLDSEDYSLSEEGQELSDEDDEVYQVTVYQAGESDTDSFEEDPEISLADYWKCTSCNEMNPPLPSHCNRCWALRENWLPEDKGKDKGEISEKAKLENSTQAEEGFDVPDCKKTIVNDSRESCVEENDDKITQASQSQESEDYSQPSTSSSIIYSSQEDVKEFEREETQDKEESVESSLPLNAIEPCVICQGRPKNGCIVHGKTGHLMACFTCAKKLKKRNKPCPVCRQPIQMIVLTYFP
Sequence of CDK6 (mouse, endogenous) (Q64261 whole entry): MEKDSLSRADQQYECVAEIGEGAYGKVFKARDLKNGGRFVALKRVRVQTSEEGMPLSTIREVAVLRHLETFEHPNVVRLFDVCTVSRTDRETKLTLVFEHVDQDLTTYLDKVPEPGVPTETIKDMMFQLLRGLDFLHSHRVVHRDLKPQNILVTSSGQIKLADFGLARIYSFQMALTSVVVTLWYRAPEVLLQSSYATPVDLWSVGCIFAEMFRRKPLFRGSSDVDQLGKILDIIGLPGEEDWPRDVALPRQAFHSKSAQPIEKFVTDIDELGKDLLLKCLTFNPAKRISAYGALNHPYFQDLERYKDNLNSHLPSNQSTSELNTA

B1: ARF N62 (mouse p19^ARF N-terminal 62 amino acids, HA-tagged) (other, not shown: small tags and cut ends)
chain: MGRRFLVTVRIQRAGRPLQERVFLVKFVRSRRPRTASCALAFVNMLLRLERILRRGPHRNPG
notes: Produced in Sf9 cells; also called HA-tagged N62; ARF N62 mutant
Consider B1, for which the binding result in [1] is recorded as “binds”.

B2: mouse p19^ARF Δ15-25 (HA-tagged deletion mutant) (other)
chain: MGRRFLVTVRIQRAKFVRSRRPRTASCALAFVNMLLRLERILRRGPHRNPGPGDDDGQRSRSSSSAQLRCRFELRGPHYLLPPGARRSAGRLPGHAGGAARVRGSAGCARCLGSPAARLGPRAGTSRHRAIFAFRWVLFVFRWVVFVYRWERRPDRRA
notes: not shown: N-terminal HA tag of the HA-tagged ARF cDNA template
For the molecule B2, in [2], the binding result is reported as “binds”.

B3: mouse p19^ARF Δ1-14 (HA-tagged deletion mutant) (other)
chain: GRPLQERVFLVKFVRSRRPRTASCALAFVNMLLRLERILRRGPHRNPGPGDDDGQRSRSSSSAQLRCRFELRGPHYLLPPGARRSAGRLPGHAGGAARVRGSAGCARCLGSPAARLGPRAGTSRHRAIFAFRWVLFVFRWVVFVYRWERRPDRRA
notes: also called p19^ARF mutant lacking amino acid residues 1-14; not shown: N-terminal HA tag of the HA-tagged ARF cDNA template
Take B3: in [2], the binding result was “binds”.

B4: syn-ARF N37 (polyhistidine-tagged mouse ARF residues 1-37, made in bacteria) (peptide)
chain: MGRRFLVTVRIQRAGRPLQERVFLVKFVRSRRPRTAS
notes: also called Synthetic ARF N37; recombinant syn-ARF N37; not shown: N-terminal polyhistidine tag of pET28a
With B4, the binding result in test [3], in [4] and in test [5] was “binds” throughout.

B5: mouse p19^ARF Δ26-37 (HA-tagged deletion mutant) (other)
chain: MGRRFLVTVRIQRAGRPLQERVFLVCALAFVNMLLRLERILRRGPHRNPGPGDDDGQRSRSSSSAQLRCRFELRGPHYLLPPGARRSAGRLPGHAGGAARVRGSAGCARCLGSPAARLGPRAGTSRHRAIFAFRWVLFVFRWVVFVYRWERRPDRRA
notes: also called HA-ARF Δ26-37; not shown: N-terminal HA tag
On to B5, for which the binding result in test [2] is “binds”.

B6: syn-ARF N64 (polyhistidine-tagged mouse ARF residues 1-64, made in bacteria) (other)
chain: MGRRFLVTVRIQRAGRPLQERVFLVKFVRSRRPRTASCALAFVNMLLRLERILRRGPHRNPGPG
notes: also called minigene-encoded N64 polypeptide; not shown: N-terminal polyhistidine tag of pET28a
In the case of B6, the binding result in test [1] was “binds”.

B7: mouse ARF synthetic peptide 15-25 (peptide)
peptide: GRPLQERVFLV
notes: Coupled to Sepharose; also called ARF 15-25
B7: the binding result in test [6] and in [7] was “no binding” in each case.

B8: InK4a-p16 (mouse) (other, UniProt P51480 1-168, looked up)
chain: MESAADRLARAAAQGRVHDVRALLEAGVSPNAPNSFGRTPIQVMMMGNVHVAALLLNYGADSNCEDPTTFSRPVHDAAREGFLDTLVVLHGSGARLDVRDAWGRLPLDLAQERGHQDIVRYLRSAGCSLCSAGWSLCTAGNVAQTDGHSFSSSTPRALELRGQSQEQS
notes: not used; also called p16^INK4a
For the molecule B8, in test [8], the binding result is on record as “binds”.

B9: mouse p19^ARF Δ1-14/Δ26-37 (HA-tagged double-deletion mutant) (other)
chain: GRPLQERVFLVCALAFVNMLLRLERILRRGPHRNPGPGDDDGQRSRSSSSAQLRCRFELRGPHYLLPPGARRSAGRLPGHAGGAARVRGSAGCARCLGSPAARLGPRAGTSRHRAIFAFRWVLFVFRWVVFVYRWERRPDRRA
notes: also called ARF Δ1-14/26-37; not shown: N-terminal HA tag
For the molecule B9, the binding result in [2] is listed as “no binding”.

B10: ARF-p19 (mouse, full-length 169 amino acid protein) (other)
chain: MGRRFLVTVRIQRAGRPLQERVFLVKFVRSRRPRTASCALAFVNMLLRLERILRRGPHRNPGPGDDDGQRSRSSSSAQLRCRFELRGPHYLLPPGARRSAGRLPGHAGGAARVRGSAGCARCLGSPAARLGPRAGTSRHRAIFAFRWVLFVFRWVVFVYRWERRPDRRA
notes: also called p19^ARF; p19^ARF protein
With B10, the binding result was “binds” in test [9]; “no binding” in test [10]; “no binding” in test [11]; “no binding” in [12]; “no binding” in test [13]; “no binding” in [14]. The binding result in test [15] is “no binding”.
